Earlier results, collected in publication PMC8393326, “A Thermodynamic Analysis of the Binding Specificity between Four Human PDZ Domains and Eight Host, Viral and Designed Ligands” (Biomolecules, 2021).

What was measured:
[1] = target: phosphorylated ERBB2 peptide (Homo sapiens)
[2] = target: ERBB2 peptide (Homo sapiens)

Sequence of Erbin PDZ (Q96RT1 1318-1412): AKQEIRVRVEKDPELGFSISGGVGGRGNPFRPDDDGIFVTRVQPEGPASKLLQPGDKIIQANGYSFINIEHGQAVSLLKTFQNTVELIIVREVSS

What does the source list for Erbin PDZ (from UniProt Q96RT1)?
Kd [1]: 128 µM; Kd [2]: 50 µM
